Source: paper PMC5317272 (The Biochemical journal, 2016)

Assays:
[1] = target: MARK1 kinase–UBA domain fragment (residues 45–371), tag-cleaved (human, UniProt Q9P0L2 45-371); assay: SAXS
[2] = target: MARK1 kinase–UBA domain fragment (residues 45–371), hexahistidine tag intact (human, UniProt Q9P0L2 45-371); assay: SPR
Sequence of MARK1 kinase–UBA domain fragment (residues 45–371), hexahistidine tag intact (Q9P0L2 45-371): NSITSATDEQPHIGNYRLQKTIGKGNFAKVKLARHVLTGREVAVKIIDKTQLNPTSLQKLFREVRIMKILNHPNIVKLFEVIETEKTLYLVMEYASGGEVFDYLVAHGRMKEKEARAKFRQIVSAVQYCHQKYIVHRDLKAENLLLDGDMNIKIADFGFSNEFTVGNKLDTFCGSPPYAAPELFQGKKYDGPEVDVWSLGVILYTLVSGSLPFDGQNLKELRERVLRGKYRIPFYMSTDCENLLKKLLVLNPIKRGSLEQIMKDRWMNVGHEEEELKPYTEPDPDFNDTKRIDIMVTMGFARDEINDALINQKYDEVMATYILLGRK

Sequence of MARK1 kinase–UBA domain fragment (residues 45–371), tag-cleaved (Q9P0L2 45-371): as above

B1: MARK1 KA1 domain (residues 683–795) (domain or fragment)
chain: not shown
With B1 the “stoichiometry N” value [1] was 1 and the Kd [2] was 73 µM.
